Our source for the IC50 and Kd values is the Immune Epitope Database (IEDB).

The target in experiment [1] is HLA-A*24:02. Kind of experiment: IEDB peptide-MHC binding, purified MHC/competitive/fluorescence; ≥ and ≤ were set here for values at or beyond the usual limits of such assays. Conditions: source organism: Zaire ebolavirus.
In experiment [2] the target is HLA-B*15:01. Described as above.
The target in experiment [3] is HLA-C*15:02. Put plainly: IEDB peptide-MHC binding, purified MHC/direct/fluorescence; filed as Kd, often an IC50 or EC50 that approximates it; ≥ and ≤ were set here for values at or beyond the usual limits of such assays.
Experiment [4] deals with HLA-A*23:01. The experiment is described as above. The conditions noted are these: source organism: Orthohantavirus hantanense.
The target of experiment [5] is HLA-A*24:03. Described as above.
Experiment [6] concerns the target HLA-B*35:01. The experiment is described as above.
Experiment [7] addresses HLA-A*31:01. The description is as above.
The target in experiment [8] is HLA-A*69:01. The description is as above.
Experiment [9] deals with HLA-B*27:05. The description is as above.
Experiment [10] deals with HLA-B*40:01. The description is as above.
The target of experiment [11] is HLA-A*11:01. The experiment is described as above.
Experiment [12] has as its target HLA-A*02:01. The description is as above.
The target in experiment [13] is HLA-B*58:01. The experiment is described as above.
Experiment [14] addresses HLA-B*07:02. The description is as above.
The target in experiment [15] is HLA-B*15:17. The description is as above.
The target in experiment [16] is HLA-A*26:01. The experiment is described as above.
Experiment [17] has as its target HLA-A*03:01. The experiment is described as above.
The target of experiment [18] is HLA-A*01:01. The description is as above.
Experiment [19] concerns the target HLA-B*15:01. The description is as above.
In experiment [20] the target is HLA-B*44:02. The description is as above.
The target in experiment [21] is HLA-B*08:01. The experiment is described as above.
Experiment [22] has as its target HLA-A*02:12. Put plainly: IEDB peptide-MHC binding, purified MHC/competitive/fluorescence; filed as Kd, often an IC50 or EC50 that approximates it; ≥ and ≤ were set here for values at or beyond the usual limits of such assays. The conditions noted are these: source organism: Vibrio parahaemolyticus K5030.
For experiment [23], the target named is HLA-B*27:03. The description is as above. The conditions noted are these: source organism: Vibrio parahaemolyticus K5030.
Experiment [24] deals with HLA-A*02:19. The experiment is described as above. Conditions: source organism: Vibrio parahaemolyticus K5030.
Experiment [25] addresses HLA-B*39:01. The description is as above. The conditions noted are these: source organism: Vibrio parahaemolyticus K5030.
In experiment [26] the target is HLA-A*29:02. The experiment is described as above. Conditions: source organism: Vibrio parahaemolyticus K5030.
In experiment [27] the target is HLA-B*57:01. The experiment is described as above. Conditions: source organism: Vibrio parahaemolyticus K5030.
In experiment [28] the target is HLA-A*02:01. Described as above. Conditions: source organism: Vibrio parahaemolyticus K5030.
The target in experiment [29] is HLA-B*46:01. The experiment is described as above. The conditions noted are these: source organism: Vibrio parahaemolyticus K5030.
For experiment [30], the target named is HLA-A*26:01. The experiment is described as above. The conditions noted are these: source organism: Vibrio parahaemolyticus K5030.
For experiment [31], the target named is HLA-B*51:01. The description is as above. Conditions: source organism: Vibrio parahaemolyticus K5030.
Experiment [32] has as its target HLA-A*03:01. The description is as above. Conditions: source organism: Vibrio parahaemolyticus K5030.
Experiment [33] deals with HLA-B*15:01. The experiment is described as above. The conditions noted are these: source organism: Vibrio parahaemolyticus K5030.
Experiment [34] concerns the target HLA-B*18:01. Described as above. Conditions: source organism: Vibrio parahaemolyticus K5030.
Experiment [35] concerns the target HLA-A*02:11. The description is as above. Conditions: source organism: Vibrio parahaemolyticus K5030.
The target in experiment [36] is HLA-A*02:03. The description is as above. Conditions: source organism: Vibrio parahaemolyticus K5030.
Experiment [37] addresses HLA-A*11:01. Put plainly: IEDB peptide-MHC binding, purified MHC/competitive/fluorescence; ≥ and ≤ were set here for values at or beyond the usual limits of such assays. Conditions: source organism: Zaire ebolavirus.
Experiment [38] has as its target HLA-A*02:01. The description is as above.
Experiment [39] addresses HLA-A*03:01. The description is as above. The conditions noted are these: source organism: Zaire ebolavirus.
The target in experiment [40] is HLA-B*57:01. Kind of experiment: IEDB peptide-MHC binding, purified MHC/direct/fluorescence; filed as Kd, often an IC50 or EC50 that approximates it; ≥ and ≤ were set here for values at or beyond the usual limits of such assays.
In experiment [41] the target is HLA-A*30:01. Described as above. The conditions noted are these: source organism: Pseudomonas aeruginosa.
Where [42] appears, read: source organism: Zaire ebolavirus.
Where [43] appears, read: source organism: Giardia lamblia ATCC 50803.
Where [44] appears, read: source organism: Vaccinia virus.
Where [45] appears, read: source organism: Camelpox virus M-96.
[46] abbreviates: source organism: Campylobacter jejuni.
[47] abbreviates: source organism: Campylobacter jejuni RM1221.
The mark [48] stands for this setting: source organism: Pseudomonas savastanoi.
Where [49] appears, read: source organism: Pseudomonas aeruginosa.

Regarding RATTELRTF, the IC50 turned out to be 0.6 µM in experiment [1] and 55.5 µM in experiment [2] (setting [42]).

In turn, TNFEFFGKL registered a Kd in experiment [3] (source organism: Caenorhabditis elegans) of 1.6 µM.

FFQNETQKY: the Kd in experiment [4] was 1.4 µM; in experiment [5] (source organism: Orthohantavirus hantanense), 1.3 µM.

As for ITASKDLCF, the Kd is 0.365 µM in [6] (setting [43]); at least 20 µM in [7] (setting [43]); at least 20 µM in [8] (setting [43]); at least 20 µM in experiment [9] (setting [43]); at least 20 µM in experiment [10] (setting [43]); at least 20 µM in experiment [11] (setting [43]). The Kd in experiment [12] (setting [43]) was at least 20 µM; in [13] (setting [43]), 0.433 µM; in experiment [3] (setting [43]), 3.85 µM; in [14] (setting [43]), at least 20 µM; in [15] (setting [43]) it was 0.0028 µM; in experiment [16] (setting [43]), at least 20 µM. Further, the Kd was at least 20 µM in experiment [17] (setting [43]); 8.69 µM in [18] (setting [43]); 0.301 µM in experiment [19] (setting [43]); at least 20 µM in experiment [20] (setting [43]); at least 20 µM in [21] (setting [43]).

AGGWVLWKV: the Kd in [22], in experiment [23], in experiment [24], in experiment [25], in experiment [26] and in [27] was at least 20 µM throughout. Moreover, the Kd in [28], in experiment [29], in [30], in experiment [31], in experiment [32] and in experiment [33] was at least 20 µM each time. Besides, the Kd in [34] was at least 20 µM; in experiment [35], 0.0015 µM; in [36], at least 20 µM.

As for AALSSLAKH, the IC50 is 9.21 µM in experiment [37], at least 98.5 µM in experiment [38] (setting [42]), at least 92.7 µM in experiment [39] and at least 156 µM in [2] (setting [42]).

On to SQYVDDANL, for which the IC50 in experiment [38] (setting [44]) is 45.4 µM; in [2] (setting [44]) it was at least 404 µM.

Regarding KSLVQYIKF, the figures for the Kd in [40] (setting [45]), in [13] (setting [45]) and in [3] (source organism: Vaccinia virus WR) were 0.508 µM, 0.0635 µM and at least 20 µM, respectively.

As to QLIIQAFEA, the IC50 in experiment [38] (setting [42]) was 0.884 µM; in experiment [2] (setting [42]), at least 720 µM.

As to KSNEKNMDF, the Kd in experiment [6] (setting [46]) is 3.16 µM; in experiment [7] (setting [47]), at least 20 µM; in [8] (setting [47]), at least 20 µM; in experiment [9] (setting [47]), at least 20 µM; in experiment [10] (setting [47]), at least 20 µM; in experiment [40] (setting [47]) it was 0.467 µM. The Kd is at least 20 µM in [11] (setting [47]); at least 20 µM in experiment [12] (setting [47]); 0.063 µM in experiment [13] (setting [46]); 0.15 µM in experiment [3] (source organism: Campylobacter jejuni subsp. jejuni NCTC 11168 = ATCC 700819); at least 20 µM in experiment [14] (setting [47]); 0.0073 µM in experiment [15] (setting [47]). Also, the Kd was at least 20 µM in experiment [16] (setting [47]); at least 20 µM in experiment [17] (setting [47]); 0.215 µM in [19] (setting [46]); at least 20 µM in experiment [20] (setting [47]); at least 20 µM in experiment [21] (setting [47]).

As to TYYPQVVLG, the Kd in [41] was at least 10 µM; in experiment [8] (setting [48]), at least 20 µM; in [9] (setting [48]), at least 20 µM; in [10] (setting [48]), at least 20 µM; in experiment [11] (setting [49]) it was 5.12 µM; in experiment [12] (setting [48]), at least 20 µM. In addition, the Kd in experiment [13] (setting [49]) is 6.85 µM; in experiment [14] (setting [48]), at least 20 µM; in [17] (setting [48]) it was at least 20 µM; in experiment [18] (setting [48]) it was at least 20 µM; in experiment [19] (setting [49]) it was at least 20 µM; in [21] (setting [48]) it was at least 20 µM. Further, in [5] (setting [49]), the Kd stood at 3.2 µM.
